Data from patent US20260242735A1 (UNIVERSIT T BASEL, published 2026).

Assays:
Test in all cases: flow cytometry, alanine scan
[1] = target: human CD33 G347A (human, UniProt P20138 18-364)
Method: (§1) An alanine scan on human CD33 was performed to the determine the residues on CD33 that are involved in binding to the antibodies investigated. […] Briefly, a mutation library of CD33 was created by high-throughput, site-directed mutagenesis. Each residue was individually mutated to alanine, with alanine codons mutated to serine. The mutant library was arrayed in 384-well microplates and transiently transfected into HEK293-T. Following transfection, cells were incubated with the indicated antibodies (IgG or Fab) at concentrations pre-determined using an independent immunofluorescence titration curve on wild type CD33. […] Binding of each antibody to each mutant clone was determined in duplicates. For each point, background fluorescence was subtracted from the raw data, which were then normalized to antibody reactivity with wild type CD33.
(§2) Critical residues for antibody binding (outlined in dark grey) were residues whose mutations led to a binding of the test Abs of less than 20%. Additional secondary residues (outlined in light grey) were identified that led to a binding of the test Abs of between 20 and 40% as compared to the wild type CD33.

[2] = target: human CD33 P350A (human, UniProt P20138 18-364)
Method: as §1, §2

[3] = target: human CD33 M334A (human, UniProt P20138 18-364)
Method: as §1, §2

[4] = target: human CD33 D335A (human, UniProt P20138 18-364)
Method: as §1, §2

[5] = target: human CD33 S351A (human, UniProt P20138 18-364)
Method: as §1, §2

[6] = target: human CD33 S323A (human, UniProt P20138 18-364)
Method: as §1, §2

[7] = target: human CD33 H346A (human, UniProt P20138 18-364)
Method: as §1, §2

[8] = target: human CD33 T331A (human, UniProt P20138 18-364)
Method: as §1, §2

[9] = target: human CD33 N349A (human, UniProt P20138 18-364)
Method: as §1, §2

[10] = target: human CD33 G318A (human, UniProt P20138 18-364)
Method: as §1, §2

[11] = target: human CD33 L343A (human, UniProt P20138 18-364)
Method: as §1, §2

[12] = target: human CD33 T322A (human, UniProt P20138 18-364)
Method: as §1, §2

[13] = target: human CD33 V361A (human, UniProt P20138 18-364)
Method: as §1, §2

[14] = target: human CD33 A328S (human, UniProt P20138 18-364)
Method: as §1, §2

[15] = target: human CD33 P319A (human, UniProt P20138 18-364)
Method: as §1, §2

[16] = target: human CD33 V332A (human, UniProt P20138 18-364)
Method: as §1, §2

[17] = target: human CD33 E333A (human, UniProt P20138 18-364)
Method: as §1, §2

[18] = target: human CD33 L338A (human, UniProt P20138 18-364)
Method: as §1, §2

[19] = target: human CD33 Y340A (human, UniProt P20138 18-364)
Method: as §1, §2

[20] = target: human CD33 Y358A (human, UniProt P20138 18-364)
Method: as §1, §2

[21] = target: human CD33 P330A (human, UniProt P20138 18-364)
Method: as §1, §2

[22] = target: human CD33 S326A (human, UniProt P20138 18-364)
Method: as §1, §2

[23] = target: human CD33 A341S (human, UniProt P20138 18-364)
Method: as §1, §2

[24] = target: human CD33 S355A (human, UniProt P20138 18-364)
Method: as §1, §2

[25] = target: human CD33 C325A (human, UniProt P20138 18-364)
Method: as §1, §2

[26] = target: human CD33 E321A (human, UniProt P20138 18-364)
Method: as §1, §2

[27] = target: human CD33 A329S (human, UniProt P20138 18-364)
Method: as §1, §2

[28] = target: human CD33 Q364A (human, UniProt P20138 18-363)
Method: as §1, §2

[29] = target: human CD33 T363A (human, UniProt P20138 18-364)
Method: as §1, §2

[30] = target: human CD33 E357A (human, UniProt P20138 18-364)
Method: as §1, §2

[31] = target: human CD33 M348A (human, UniProt P20138 18-364)
Method: as §1, §2

[32] = target: human CD33 S359A (human, UniProt P20138 18-364)
Method: as §1, §2

[33] = target: human CD33 D353A (human, UniProt P20138 18-364)
Method: as §1, §2

[34] = target: human CD33 F345A (human, UniProt P20138 18-364)
Method: as §1, §2

[35] = target: human CD33 S342A (human, UniProt P20138 18-364)
Method: as §1, §2

[36] = target: human CD33 E337A (human, UniProt P20138 18-364)
Method: as §1, §2

[37] = target: human CD33 R362A (human, UniProt P20138 18-364)
Method: as §1, §2

[38] = target: human CD33 S324A (human, UniProt P20138 18-364)
Method: as §1, §2

[39] = target: human CD33 E360A (human, UniProt P20138 18-364)
Method: as §1, §2

[40] = target: human CD33 T354A (human, UniProt P20138 18-364)
Method: as §1, §2

[41] = target: human CD33 E336A (human, UniProt P20138 18-364)
Method: as §1, §2

[42] = target: human CD33 H339A (human, UniProt P20138 18-364)
Method: as §1, §2

[43] = target: human CD33 T356A (human, UniProt P20138 18-364)
Method: as §1, §2

[44] = target: human CD33 N344A (human, UniProt P20138 18-364)
Method: as §1, §2

[45] = target: human CD33 T320A (human, UniProt P20138 18-364)
Method: as §1, §2

[46] = target: human CD33 G327A (human, UniProt P20138 18-364)
Method: as §1, §2

[47] = target: human CD33 K352A (human, UniProt P20138 18-364)
Method: as §1, §2

human CD33 S355A, sequence (P20138 18-364 S355A limits assumed): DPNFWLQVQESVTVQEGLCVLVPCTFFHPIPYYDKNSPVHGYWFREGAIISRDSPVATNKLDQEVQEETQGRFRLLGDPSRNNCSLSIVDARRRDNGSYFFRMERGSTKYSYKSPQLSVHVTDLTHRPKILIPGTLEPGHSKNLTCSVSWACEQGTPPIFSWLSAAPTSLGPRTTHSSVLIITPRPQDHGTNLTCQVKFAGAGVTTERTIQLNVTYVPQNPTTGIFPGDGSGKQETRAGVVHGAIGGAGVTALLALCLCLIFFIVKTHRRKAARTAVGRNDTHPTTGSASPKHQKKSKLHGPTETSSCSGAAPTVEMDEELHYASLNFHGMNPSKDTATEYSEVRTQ
human CD33 S323A, sequence (P20138 18-364 S323A limits assumed): as the sequence (P20138 18-364 S355A limits assumed) above, with S306A, A338S counted along it
human CD33 R362A, sequence (P20138 18-364 R362A limits assumed): as the sequence (P20138 18-364 S355A limits assumed) above, with A338S, R345A counted along it
human CD33 V361A, sequence (P20138 18-364 V361A limits assumed): as the sequence (P20138 18-364 S355A limits assumed) above, with A338S, V344A counted along it
human CD33 P319A, sequence (P20138 18-364 P319A limits assumed): as the sequence (P20138 18-364 S355A limits assumed) above, with P302A, A338S counted along it
human CD33 A341S, sequence (P20138 18-364 A341S limits assumed): as the sequence (P20138 18-364 S355A limits assumed) above, with A324S, A338S counted along it
human CD33 A329S, sequence (P20138 18-364 A329S limits assumed): as the sequence (P20138 18-364 S355A limits assumed) above, with A312S, A338S counted along it
human CD33 S359A, sequence (P20138 18-364 S359A limits assumed): as the sequence (P20138 18-364 S355A limits assumed) above, with A338S, S342A counted along it
human CD33 N349A, sequence (P20138 18-364 N349A limits assumed): as the sequence (P20138 18-364 S355A limits assumed) above, with N332A, A338S counted along it
human CD33 H346A, sequence (P20138 18-364 H346A limits assumed): as the sequence (P20138 18-364 S355A limits assumed) above, with H329A, A338S counted along it
human CD33 G318A, sequence (P20138 18-364 G318A limits assumed): as the sequence (P20138 18-364 S355A limits assumed) above, with G301A, A338S counted along it
human CD33 C325A, sequence (P20138 18-364 C325A limits assumed): as the sequence (P20138 18-364 S355A limits assumed) above, with C308A, A338S counted along it
human CD33 G327A, sequence (P20138 18-364 G327A limits assumed): as the sequence (P20138 18-364 S355A limits assumed) above, with G310A, A338S counted along it
human CD33 M348A, sequence (P20138 18-364 M348A limits assumed): as the sequence (P20138 18-364 S355A limits assumed) above, with M331A, A338S counted along it

B1: Refmab #4 (antibody, V domains shown)
VH: QVQLVQSGAEVKKPGESVKVSCKASGYTFTNYGMNWVKQAPGQGLEWMGWINTYTGEPTYADKFQGRVTMTTDTSTSTAYMEIRNLGGDDTAVYYCARWSWSDGYYVYFDYWGQGTSVTVSS
VL: DIVMTQSPDSLTVSLGERTTINCKSSQSVLDSSTNKNSLAWYQQKPGQPPKLLLSWASTRESGIPDRFSGSGSGTDFTLTIDSPQPEDSATYYCQQSAHFPITFGQGTRLEIK
notes: The alanine scan used IgG or Fab
- Mean % WT Binding [1]: 72.1 % of WT
- Mean % WT Binding [2]: 93.1 % of WT
- Mean % WT Binding [3]: 111 % of WT
- Mean % WT Binding [4]: 105 % of WT
- Mean % WT Binding [5]: 114 % of WT
- Mean % WT Binding [6]: 103 % of WT
- Mean % WT Binding [7]: 111 % of WT
- Mean % WT Binding [8]: 97.9 % of WT
- Mean % WT Binding [9]: 95.5 % of WT
- Mean % WT Binding [10]: 92.2 % of WT
- Mean % WT Binding [11]: 116 % of WT
- Mean % WT Binding [12]: 98.2 % of WT
- Mean % WT Binding [13]: 92.4 % of WT
- Mean % WT Binding [14]: 75.6 % of WT
- Mean % WT Binding [15]: 97 % of WT
- Mean % WT Binding [16]: 93.4 % of WT
- Mean % WT Binding [17]: 104 % of WT
- Mean % WT Binding [18]: 109 % of WT
- Mean % WT Binding [19]: 112 % of WT
- Mean % WT Binding [20]: 109 % of WT
- Mean % WT Binding [21]: 97.8 % of WT
- Mean % WT Binding [22]: 65.8 % of WT
- Mean % WT Binding [23]: 104 % of WT
- Mean % WT Binding [24]: 91.5 % of WT
- Mean % WT Binding [25]: 88.6 % of WT
- Mean % WT Binding [26]: 120 % of WT
- Mean % WT Binding [27]: 87.3 % of WT
- Mean % WT Binding [28]: 81.5 % of WT
- Mean % WT Binding [29]: 124 % of WT
- Mean % WT Binding [30]: 110 % of WT
- Mean % WT Binding [31]: 85 % of WT
- Mean % WT Binding [32]: 82.7 % of WT
- Mean % WT Binding [33]: 74.9 % of WT
- Mean % WT Binding [34]: 109 % of WT
- Mean % WT Binding [35]: 105 % of WT
- Mean % WT Binding [36]: 106 % of WT
- Mean % WT Binding [37]: 104 % of WT
- Mean % WT Binding [38]: 96.4 % of WT
- Mean % WT Binding [39]: 104 % of WT
- Mean % WT Binding [40]: 106 % of WT
- Mean % WT Binding [41]: 109 % of WT
- Mean % WT Binding [42]: 82 % of WT
- Mean % WT Binding [43]: 107 % of WT
- Mean % WT Binding [44]: 71.2 % of WT
- Mean % WT Binding [45]: 109 % of WT
- Mean % WT Binding [46]: 99.1 % of WT
- Mean % WT Binding [47]: 103 % of WT
